Assay [1] deals with T1, rat lutropin receptor (LHR) (rat, UniProt P16235 27-700).
T1 construct: whole, on cells; also called LH receptor
The assay is described as follows: inhibition of 125I-hCG binding to CHO cells with rat LHR; from IC50; native β-subunit analog.

Assay [2] concerns the target T1, rat lutropin receptor (LHR). The assay is described as follows: cell-based or functional assay.
Assay [3] has the same target. The assay is described as follows: LHR binding assay.
The target is the same in assay [4]. Put plainly: inhibition of 125I-hCG binding to CHO cells with rat LHR; from IC50; acid-stable hCGβ-S138C analog.
The target is the same in assay [5]. Put plainly: LHR binding and signaling assays.

Residue numbers refer to the chain shown, from its start.

T1 sequence (P16235 27-700): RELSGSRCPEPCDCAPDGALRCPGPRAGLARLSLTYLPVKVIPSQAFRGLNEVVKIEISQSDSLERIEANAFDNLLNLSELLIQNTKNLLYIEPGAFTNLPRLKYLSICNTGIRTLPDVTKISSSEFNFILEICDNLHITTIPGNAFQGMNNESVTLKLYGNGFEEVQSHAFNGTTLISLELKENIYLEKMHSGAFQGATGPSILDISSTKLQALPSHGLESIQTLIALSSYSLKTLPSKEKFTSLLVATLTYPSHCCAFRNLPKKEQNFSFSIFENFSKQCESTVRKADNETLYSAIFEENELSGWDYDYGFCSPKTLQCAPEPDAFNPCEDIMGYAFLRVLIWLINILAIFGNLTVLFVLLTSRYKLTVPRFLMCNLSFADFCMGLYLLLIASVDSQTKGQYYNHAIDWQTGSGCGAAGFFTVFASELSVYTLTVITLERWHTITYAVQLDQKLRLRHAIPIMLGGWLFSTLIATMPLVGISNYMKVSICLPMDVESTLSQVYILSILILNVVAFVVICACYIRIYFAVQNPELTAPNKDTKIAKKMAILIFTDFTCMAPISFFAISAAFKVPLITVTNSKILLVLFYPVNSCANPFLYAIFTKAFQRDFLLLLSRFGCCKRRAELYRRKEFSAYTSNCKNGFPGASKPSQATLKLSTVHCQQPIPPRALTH

B1: hCG-αK91E (ligand)
chain 1: not shown
chain 2: SKEPLRPRCRPINATLAVEKEGCPVCITVNTTICAGYCPTMTRVLQGVLPALPQVVCNYRDVRFESIRLPGCPRGVNPVVSYAVALSCQCALCRRSTTDCGGPKDHPLTCDDPRFQDSSSSKAPPPSLPSPSRLPGPSDTPILPQ
notes: mature; heterodimer from COS-7 medium; also called αK91E+hCGβ
Regarding B1, the “Receptor-Binding potency (percent hCG)” value in assay [1] is 4.3 % of hCG. Further, the “Signal Transduction potency (cAMP accumulation)” value in assay [2] is 1.1 % of hCG. The “fold lower affinity than hCG” value in assay [3] is approximately 10 fold.

B2: αK44C + hCGβ-S138C (ligand)
chain 1: not shown
chain 2: B1 chain 2 with S138C
notes: mature; disulfide αCys44-βCys138
Take B2: in assay [4], the “Receptor-Binding potency (percent hCG)” value is 250 % of hCG. Moreover, the “Signal transduction potency (cAMP accumulation), acid-stable analog” value in assay [2] is 191 % of hCG.

B3: αR42C + hCGβ-S138C (ligand)
chain 1: not shown
chain 2: B1 chain 2 with S138C
notes: mature; disulfide αCys42-βCys138
Turning to B3, the “Receptor-Binding potency (percent hCG)” value in assay [4] is 327 % of hCG. In assay [2], the “Signal transduction potency (cAMP accumulation), acid-stable analog” value was 332 % of hCG.

B4: hCG-αCTδ116/135,138C + hCG β-subunit analog with cysteine in place of Asp99 (ligand)
chain 1: not shown
chain 2: B1 chain 2 with N77P, P78N, D99C
notes: also called knob at β-subunit residue 99
Turning to B4, the binding result in assay [5] is given as “no binding”.

B5: αM47C + hCGβ-S138C (ligand)
chain 1: not shown
chain 2: B1 chain 2 with S138C
notes: mature; disulfide αCys47-βCys138
B5: the “Receptor-Binding potency (percent hCG)” value in assay [4] was 4.1 % of hCG. In addition, the “Signal transduction potency (cAMP accumulation), acid-stable analog” value in assay [2] was 2.4 % of hCG.

B6: αS92C + hCGβ-S138C (ligand)
chain 1: not shown
chain 2: B1 chain 2 with S138C
notes: mature; disulfide αCys92-βCys138
With B6, in assay [4], the “Receptor-Binding potency (percent hCG)” value is 28 % of hCG. Besides, the “Signal transduction potency (cAMP accumulation), acid-stable analog” value in assay [2] was 13 % of hCG.

B7: αV49C + hCGβ-S138C (ligand)
chain 1: not shown
chain 2: B1 chain 2 with S138C
notes: mature; disulfide αCys49-βCys138
With B7, the “Receptor-Binding potency (percent hCG)” value in assay [4] was 71 % of hCG. For the same molecule, the “Signal transduction potency (cAMP accumulation), acid-stable analog” value in assay [2] is 99 % of hCG.

B8: αS43C + hCGβ-S138C (ligand)
chain 1: not shown
chain 2: B1 chain 2 with S138C
notes: mature; disulfide αCys43-βCys138
As for B8, the “Receptor-Binding potency (percent hCG)” value in assay [4] is 17 % of hCG. In assay [2], the “Signal transduction potency (cAMP accumulation), acid-stable analog” value was 43 % of hCG.

B9: hCG-αCTδ116/135,138C + hCG β-subunit analog with cysteine in place of Arg95 (ligand)
chain 1: not shown
chain 2: B1 chain 2 with N77P, P78N, R95C
notes: also called knob at β-subunit residue 95
Consider B9, for which the binding result in assay [5] is reported as “no binding”.

B10: αK45C + hCGβ-S138C (ligand)
chain 1: not shown
chain 2: B1 chain 2 with S138C
notes: mature; disulfide αCys45-βCys138
As to B10, the “Receptor-Binding potency (percent hCG)” value in assay [4] is 223 % of hCG. The “Signal transduction potency (cAMP accumulation), acid-stable analog” value in assay [2] is 168 % of hCG.

B11: αT46C + hCGβ-S138C (ligand)
chain 1: not shown
chain 2: B1 chain 2 with S138C
notes: mature; disulfide αCys46-βCys138
Take B11: the “Receptor-Binding potency (percent hCG)” value in assay [4] is 50 % of hCG. For the same molecule, the “Signal transduction potency (cAMP accumulation), acid-stable analog” value in assay [2] is 52 % of hCG.

B12: αL48C + hCGβ-S138C (ligand)
chain 1: not shown
chain 2: B1 chain 2 with S138C
notes: mature; disulfide αCys48-βCys138; also called hCGβS138C+αL48C
For the molecule B12, in assay [4], the “Receptor-Binding potency (percent hCG)” value was 66 % of hCG. In assay [2], the “Signal transduction potency (cAMP accumulation), acid-stable analog” value is 99 % of hCG.

For the origin of these results see US20060177894A1 (published 2006).
